Results on eight molecules are retold here after patent publication US20250197482A1 (UNITED STATES OF AMERICA AS REPRESENTED BY THE SECRETARY …, published 2025).

Substitutions are numbered along the chain they refer to.

Sequences and labels used below:
B1: CAP256V2LS-VRC01-1 (bispecific antibody)
heavy chain: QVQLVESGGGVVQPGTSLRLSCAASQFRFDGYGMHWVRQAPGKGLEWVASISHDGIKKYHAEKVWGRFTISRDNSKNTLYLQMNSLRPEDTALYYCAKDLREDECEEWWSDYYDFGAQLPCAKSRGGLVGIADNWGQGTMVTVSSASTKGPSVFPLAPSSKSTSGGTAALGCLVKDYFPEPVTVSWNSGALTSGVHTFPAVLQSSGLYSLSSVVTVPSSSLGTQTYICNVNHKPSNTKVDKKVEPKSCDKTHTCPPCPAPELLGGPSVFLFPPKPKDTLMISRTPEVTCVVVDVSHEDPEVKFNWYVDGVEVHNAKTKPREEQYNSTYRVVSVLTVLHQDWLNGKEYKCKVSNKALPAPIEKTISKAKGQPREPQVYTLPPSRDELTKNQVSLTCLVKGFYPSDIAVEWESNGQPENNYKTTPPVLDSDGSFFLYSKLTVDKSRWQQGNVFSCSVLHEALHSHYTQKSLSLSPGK
light chain (VRC01 scFv, linker, CAP256V2LS LC): QVQLVQSGGQMKKPGESMRISCRASGYEFIDCTLNWIRLAPGKRPEWMGWLKPRGGAVNYARPLQGRVTMTRDVYSDTAFLELRSLTVDDTAVYFCTRGKNCDYNWDFEHWGRGTPVIVSSGGGGSGGGGSGGGGSLTQSPGTLSLSPGETAIISCRTSQYGSLAWYQQRPGQAPRLVIYSGSTRAAGIPDRFSGSRWGPDYNLTISNLESGDFGVYYCQQYEFFGQGTKVQVGGSGGQSVLTQPPSVSAAPGQKVTISCSGNTSNIGNNFVSWYQQRPGRAPQLLIYETDKRPSGIPDRFSASKSGTSGTLAITGLQTGDEADYYCATWAASLSSARVFGTGTQVIVLGQPKVNPTVTLFPPSSEELQANKATLVCLISDFYPGAVTVAWKADSSPVKAGVETTTPSKQSNNKYAASSYLSLTPEQWKSHRSYSCQVTHEGSTVEKTVAPTECS
B2: CAP256V2LS-VRC01-4 (bispecific antibody)
heavy chain: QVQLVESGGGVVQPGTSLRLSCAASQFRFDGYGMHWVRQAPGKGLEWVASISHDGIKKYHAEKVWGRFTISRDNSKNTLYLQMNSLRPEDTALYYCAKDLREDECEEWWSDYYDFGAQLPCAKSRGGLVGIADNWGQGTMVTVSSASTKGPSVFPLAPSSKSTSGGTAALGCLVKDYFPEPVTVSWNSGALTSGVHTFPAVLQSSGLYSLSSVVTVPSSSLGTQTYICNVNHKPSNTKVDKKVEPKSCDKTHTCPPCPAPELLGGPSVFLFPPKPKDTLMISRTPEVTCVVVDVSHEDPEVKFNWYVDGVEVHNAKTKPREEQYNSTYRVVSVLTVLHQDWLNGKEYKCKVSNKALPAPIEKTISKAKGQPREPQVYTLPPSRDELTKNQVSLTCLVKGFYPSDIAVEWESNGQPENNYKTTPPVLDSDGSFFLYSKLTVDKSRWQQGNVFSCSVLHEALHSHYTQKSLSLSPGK
light chain (VRC01 scFv, linker, CAP256V2LS LC): B1 light chain (VRC01 scFv, linker, CAP256V2LS LC) with G234D, G235K, S236T, G237H, G238T
B3: CAP256V2LS-10E8-5 (bispecific antibody)
heavy chain: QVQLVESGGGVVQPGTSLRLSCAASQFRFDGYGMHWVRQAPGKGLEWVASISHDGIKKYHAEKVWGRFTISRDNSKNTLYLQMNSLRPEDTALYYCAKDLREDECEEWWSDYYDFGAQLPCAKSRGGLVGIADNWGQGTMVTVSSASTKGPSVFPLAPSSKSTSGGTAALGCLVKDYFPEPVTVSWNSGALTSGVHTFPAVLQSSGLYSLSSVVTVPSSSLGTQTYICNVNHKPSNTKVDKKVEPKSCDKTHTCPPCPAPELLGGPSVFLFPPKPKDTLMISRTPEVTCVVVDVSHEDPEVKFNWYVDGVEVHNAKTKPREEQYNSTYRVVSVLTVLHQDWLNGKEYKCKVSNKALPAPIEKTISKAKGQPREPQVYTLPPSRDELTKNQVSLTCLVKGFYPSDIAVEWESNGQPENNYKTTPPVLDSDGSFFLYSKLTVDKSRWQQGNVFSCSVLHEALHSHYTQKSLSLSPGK
light chain (10E8v4 scFv, linker, CAP256V2LS LC): EVRLVESGGGLVKPGGSLRLSCSASGFDFDNAWMTWVRQPPGKGLEWVGRITGPGEGWSVDYAESVKGRFTISRDNTKNTLYLEMNNVRTEDTGYYFCARTGKYYDFWSGYPPGEEYFQDWGQGTLVIVSSGGGGSGGGGSGGGGSSELTQDPAVSVALKQTVTITCRGDSLRSHYASWYQKKPGQAPVLLFYGKNNRPSGIPDRFSGSASGNRASLTITGAQAEDEADYYCSSRDKSGSRLSVFGGGTKLTVDKTHTGDKTHTQSVLTQPPSVSAAPGQKVTISCSGNTSNIGNNFVSWYQQRPGRAPQLLIYETDKRPSGIPDRFSASKSGTSGTLAITGLQTGDEADYYCATWAASLSSARVFGTGTQVIVLGQPKVNPTVTLFPPSSEELQANKATLVCLISDFYPGAVTVAWKADSSPVKAGVETTTPSKQSNNKYAASSYLSLTPEQWKSHRSYSCQVTHEGSTVEKTVAPTECS
B4: CAP256V2LS-10E8-6 (bispecific antibody)
heavy chain: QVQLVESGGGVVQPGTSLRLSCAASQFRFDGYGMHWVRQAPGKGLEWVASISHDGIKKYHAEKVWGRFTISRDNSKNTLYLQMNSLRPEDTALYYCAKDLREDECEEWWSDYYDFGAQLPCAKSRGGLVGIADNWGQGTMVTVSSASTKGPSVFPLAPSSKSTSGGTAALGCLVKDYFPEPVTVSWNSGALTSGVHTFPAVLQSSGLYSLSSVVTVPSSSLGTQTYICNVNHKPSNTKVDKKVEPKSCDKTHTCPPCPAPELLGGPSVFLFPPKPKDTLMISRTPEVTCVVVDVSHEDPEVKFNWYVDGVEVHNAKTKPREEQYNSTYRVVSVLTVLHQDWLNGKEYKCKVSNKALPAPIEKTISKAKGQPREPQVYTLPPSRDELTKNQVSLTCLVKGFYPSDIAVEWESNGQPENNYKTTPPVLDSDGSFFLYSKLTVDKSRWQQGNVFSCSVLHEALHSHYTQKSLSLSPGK
light chain (10E8v4 scFv, linker, CAP256V2LS LC): EVRLVESGGGLVKPGGSLRLSCSASGFDFDNAWMTWVRQPPGKGLEWVGRITGPGEGWSVDYAESVKGRFTISRDNTKNTLYLEMNNVRTEDTGYYFCARTGKYYDFWSGYPPGEEYFQDWGQGTLVIVSSGGGGSGGGGSGGGGSSELTQDPAVSVALKQTVTITCRGDSLRSHYASWYQKKPGQAPVLLFYGKNNRPSGIPDRFSGSASGNRASLTITGAQAEDEADYYCSSRDKSGSRLSVFGGGTKLTVDKTHTGDKTHTGDKTHTQSVLTQPPSVSAAPGQKVTISCSGNTSNIGNNFVSWYQQRPGRAPQLLIYETDKRPSGIPDRFSASKSGTSGTLAITGLQTGDEADYYCATWAASLSSARVFGTGTQVIVLGQPKVNPTVTLFPPSSEELQANKATLVCLISDFYPGAVTVAWKADSSPVKAGVETTTPSKQSNNKYAASSYLSLTPEQWKSHRSYSCQVTHEGSTVEKTVAPTECS
B5: CAP256V2LS-J3-1 (bispecific antibody)
heavy chain: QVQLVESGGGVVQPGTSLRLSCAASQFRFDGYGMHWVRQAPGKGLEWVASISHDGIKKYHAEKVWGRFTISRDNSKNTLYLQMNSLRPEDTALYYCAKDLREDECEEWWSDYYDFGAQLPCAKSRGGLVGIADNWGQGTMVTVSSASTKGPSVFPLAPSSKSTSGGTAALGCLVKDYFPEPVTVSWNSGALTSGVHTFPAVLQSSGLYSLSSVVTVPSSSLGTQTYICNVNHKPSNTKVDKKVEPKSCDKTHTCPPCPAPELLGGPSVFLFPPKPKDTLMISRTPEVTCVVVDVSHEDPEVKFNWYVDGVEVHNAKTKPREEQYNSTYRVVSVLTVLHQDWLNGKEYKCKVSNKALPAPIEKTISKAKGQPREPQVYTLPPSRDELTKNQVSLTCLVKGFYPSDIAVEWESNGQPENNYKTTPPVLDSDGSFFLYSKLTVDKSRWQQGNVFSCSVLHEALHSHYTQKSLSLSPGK
light chain (J3 VHH, linker, CAP256V2LS LC): EVQLVESGGGLVQAGGFLRLSCELRGSIFNQYAMAWFRQAPGKEREFVAGMGAVPHYGEFVKGRFTISRDNAKSTVYLQMSSLKPEDTAIYFCARSKSTYISYNSNGYDYWGRGTQVTVSSGGSGGQSVLTQPPSVSAAPGQKVTISCSGNTSNIGNNFVSWYQQRPGRAPQLLIYETDKRPSGIPDRFSASKSGTSGTLAITGLQTGDEADYYCATWAASLSSARVFGTGTQVIVLGQPKVNPTVTLFPPSSEELQANKATLVCLISDFYPGAVTVAWKADSSPVKAGVETTTPSKQSNNKYAASSYLSLTPEQWKSHRSYSCQVTHEGSTVEKTVAPTECS
B6: CAP256V2LS-VRC01-3 (bispecific antibody)
heavy chain: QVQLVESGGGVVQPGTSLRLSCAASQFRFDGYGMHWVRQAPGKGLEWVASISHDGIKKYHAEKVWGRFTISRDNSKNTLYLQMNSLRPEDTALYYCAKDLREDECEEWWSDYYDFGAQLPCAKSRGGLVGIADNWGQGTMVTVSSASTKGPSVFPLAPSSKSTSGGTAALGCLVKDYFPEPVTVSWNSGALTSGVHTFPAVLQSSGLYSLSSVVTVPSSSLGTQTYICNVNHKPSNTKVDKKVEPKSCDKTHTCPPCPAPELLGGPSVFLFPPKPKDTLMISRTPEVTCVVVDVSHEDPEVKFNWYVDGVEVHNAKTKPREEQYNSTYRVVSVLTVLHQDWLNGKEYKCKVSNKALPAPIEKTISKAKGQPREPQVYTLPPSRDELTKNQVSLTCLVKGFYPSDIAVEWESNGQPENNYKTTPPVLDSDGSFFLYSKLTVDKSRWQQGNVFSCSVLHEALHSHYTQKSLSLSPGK
light chain (VRC01 scFv, linker, CAP256V2LS LC): QVQLVQSGGQMKKPGESMRISCRASGYEFIDCTLNWIRLAPGKRPEWMGWLKPRGGAVNYARPLQGRVTMTRDVYSDTAFLELRSLTVDDTAVYFCTRGKNCDYNWDFEHWGRGTPVIVSSGGGGSGGGGSGGGGSLTQSPGTLSLSPGETAIISCRTSQYGSLAWYQQRPGQAPRLVIYSGSTRAAGIPDRFSGSRWGPDYNLTISNLESGDFGVYYCQQYEFFGQGTKVQVGGSGGGGSGGGGSGGQSVLTQPPSVSAAPGQKVTISCSGNTSNIGNNFVSWYQQRPGRAPQLLIYETDKRPSGIPDRFSASKSGTSGTLAITGLQTGDEADYYCATWAASLSSARVFGTGTQVIVLGQPKVNPTVTLFPPSSEELQANKATLVCLISDFYPGAVTVAWKADSSPVKAGVETTTPSKQSNNKYAASSYLSLTPEQWKSHRSYSCQVTHEGSTVEKTVAPTECS
B7: CAP256V2LS-10E8-4 (bispecific antibody)
heavy chain: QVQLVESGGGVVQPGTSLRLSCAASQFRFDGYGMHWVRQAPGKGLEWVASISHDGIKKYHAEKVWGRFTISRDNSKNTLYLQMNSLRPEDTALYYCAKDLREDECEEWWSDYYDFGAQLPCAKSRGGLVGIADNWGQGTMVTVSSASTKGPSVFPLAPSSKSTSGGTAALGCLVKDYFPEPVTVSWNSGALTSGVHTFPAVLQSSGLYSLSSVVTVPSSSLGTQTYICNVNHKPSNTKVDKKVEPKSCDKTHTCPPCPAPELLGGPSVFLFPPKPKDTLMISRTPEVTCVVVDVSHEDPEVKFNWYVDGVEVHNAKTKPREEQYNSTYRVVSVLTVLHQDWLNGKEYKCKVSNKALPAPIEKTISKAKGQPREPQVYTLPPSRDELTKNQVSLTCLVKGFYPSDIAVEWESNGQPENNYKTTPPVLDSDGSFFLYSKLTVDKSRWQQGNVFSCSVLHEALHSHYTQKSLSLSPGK
light chain (10E8v4 scFv, linker, CAP256V2LS LC): EVRLVESGGGLVKPGGSLRLSCSASGFDFDNAWMTWVRQPPGKGLEWVGRITGPGEGWSVDYAESVKGRFTISRDNTKNTLYLEMNNVRTEDTGYYFCARTGKYYDFWSGYPPGEEYFQDWGQGTLVIVSSGGGGSGGGGSGGGGSSELTQDPAVSVALKQTVTITCRGDSLRSHYASWYQKKPGQAPVLLFYGKNNRPSGIPDRFSGSASGNRASLTITGAQAEDEADYYCSSRDKSGSRLSVFGGGTKLTVDKTHTQSVLTQPPSVSAAPGQKVTISCSGNTSNIGNNFVSWYQQRPGRAPQLLIYETDKRPSGIPDRFSASKSGTSGTLAITGLQTGDEADYYCATWAASLSSARVFGTGTQVIVLGQPKVNPTVTLFPPSSEELQANKATLVCLISDFYPGAVTVAWKADSSPVKAGVETTTPSKQSNNKYAASSYLSLTPEQWKSHRSYSCQVTHEGSTVEKTVAPTECS
B8: CAP256V2LS-VRC01-2 (bispecific antibody)
heavy chain: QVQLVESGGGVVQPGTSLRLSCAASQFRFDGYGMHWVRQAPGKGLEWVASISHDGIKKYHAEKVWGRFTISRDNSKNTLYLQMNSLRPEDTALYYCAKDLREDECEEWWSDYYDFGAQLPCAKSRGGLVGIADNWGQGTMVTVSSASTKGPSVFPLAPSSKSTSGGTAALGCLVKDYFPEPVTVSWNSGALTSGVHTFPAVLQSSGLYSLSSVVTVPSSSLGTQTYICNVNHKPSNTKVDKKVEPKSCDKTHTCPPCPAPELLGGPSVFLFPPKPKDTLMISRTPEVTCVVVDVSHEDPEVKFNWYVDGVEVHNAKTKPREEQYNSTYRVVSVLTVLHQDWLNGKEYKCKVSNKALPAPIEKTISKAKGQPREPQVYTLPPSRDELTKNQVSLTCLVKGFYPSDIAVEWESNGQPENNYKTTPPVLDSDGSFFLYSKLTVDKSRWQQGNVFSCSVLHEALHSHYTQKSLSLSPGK
light chain (VRC01 scFv, linker, CAP256V2LS LC): QVQLVQSGGQMKKPGESMRISCRASGYEFIDCTLNWIRLAPGKRPEWMGWLKPRGGAVNYARPLQGRVTMTRDVYSDTAFLELRSLTVDDTAVYFCTRGKNCDYNWDFEHWGRGTPVIVSSGGGGSGGGGSGGGGSLTQSPGTLSLSPGETAIISCRTSQYGSLAWYQQRPGQAPRLVIYSGSTRAAGIPDRFSGSRWGPDYNLTISNLESGDFGVYYCQQYEFFGQGTKVQVGGSGGGGSGGQSVLTQPPSVSAAPGQKVTISCSGNTSNIGNNFVSWYQQRPGRAPQLLIYETDKRPSGIPDRFSASKSGTSGTLAITGLQTGDEADYYCATWAASLSSARVFGTGTQVIVLGQPKVNPTVTLFPPSSEELQANKATLVCLISDFYPGAVTVAWKADSSPVKAGVETTTPSKQSNNKYAASSYLSLTPEQWKSHRSYSCQVTHEGSTVEKTVAPTECS

The target in one test is HIV-1 Env of strain WITO.33 (Env-pseudotyped virus) (HIV-1). Briefly: cell-based or functional assay.
Consider B1, for which the “% neutralization, single point, Env-pseudotyped virus on TZM-bl” value (“% neutralization, single point” for short) is 0%.

On to B2, for which the “% neutralization, single point” value is 0%.

For the molecule B3, the “% neutralization, single point” value was found to be 18%.

Regarding B4, the “% neutralization, single point” value came to 0%.

B5: the “% neutralization, single point” value was found to be 3%.

Consider B6, for which the “% neutralization, single point” value came to 0%.

For the molecule B7, the “% neutralization, single point” value was determined as 10%.

For the molecule B8, the “% neutralization, single point” value came out at 38%.

A further test addresses CAP256 wk34c80 (HIV-1). Briefly: cell-based or functional assay.
As to B1, the “% neutralization, single point” value came to 77%.

B2: the “% neutralization, single point” value was found to be 98%.

Consider B3, for which the “% neutralization, single point” value was determined as 100%.

Regarding B4, the “% neutralization, single point” value is 100%.

Regarding B5, the “% neutralization, single point” value came to 20%.

With B6, the “% neutralization, single point” value was 99%.

B7: the “% neutralization, single point” value was found to be 23%.

For the molecule B8, the “% neutralization, single point” value amounted to 41%.
